Assay results published in article PMC4604687, “A novel mechano-enzymatic cleavage mechanism underlies transthyretin amyloidogenesis” (EMBO Molecular Medicine, 2015).

B1: residue 49–127 fragment of S52P TTR (domain or fragment)
chain: not shown
notes: In the hybrid tetramer experiment the fragment comes from the 13C,15N-labelled S52P TTR; source: limited trypsin proteolysis of recombinant S52P TTR (cleavage at Lys48)
B2: tryptic peptide CPLMVK (peptide)
peptide: CPLMVK
notes: tryptic peptide seen as adduct on the S52P TTR tetramer; source: trypsin digestion of recombinant S52P TTR

Assays:
Settings in all cases: both partners purified
[1] = molecular target: T1, S52P transthyretin (S52P TTR), full-length protomer (residues 1–127) (UniProt P02766 21-147, S52P); assay: native MS; equimolar 50 uM light wild-type and heavy S52P TTR in PBS 3 days at 4°C, then overnight with trypsin at 37°C; each tetramer species isolated and activated (tandem MS, Q-TOFII, 40 V)
[2] = molecular target: wild-type transthyretin (wild-type TTR) (UniProt P02766 21-147); assay: as above
[3] = molecular target: T1, S52P transthyretin (S52P TTR), …; assay: native MS; TTR (S52P with or without limited trypsin proteolysis; wild type) in 200 mM ammonium acetate pH 7.4, nano-electrospray; 13+ charge state of the tetramer selected, acceleration voltage ramped 20 to 70 V (collision-induced dissociation)

| Binder | binding result [1] | binding result [2] | binding result [3] |
| --- | --- | --- | --- |
| B1 | binds | binds | – |
| B2 | – | – | binds |
